Substitutions are numbered along the chain they refer to.
B1: P1AG5007 (E04_VH1a/VL1e) (antibody, V domains shown)
VH: QVQLVQSGAEVKKPGASVKVSCKASGYTFTNYWMHWVRQAPGQGLEWMGIIHPNSGSTNYNEKFQGRVTMTRDTSTSTVYMELSSLRSEDTAVYYCARGIYDYPFAYWGQGTLVTVSS
VL: DIQMTQSPSSLSASVGDRVTITCRASESVSIHGTHLMHWYQQKPGKAPKLLIYAASSLQSGVPSRFSGSGSGTDFTLTISSLQPEDFATYYCQQSIEDPYTFGGGTKVEIK
B2: P1AG5076 (E04_VH1b/VL1h) (antibody, V domains shown)
VH: B1 VH with R72V, T74K
VL: B1 VL with S57N, Q59E, G72E, Y91F
B3: P1AG5063 (E04_VH1a/VL1a) (antibody, V domains shown)
VH: B1 VH
VL: B1 VL with S57N, Q59E
B4: P1AG5078 (E04_VH1b/VL1d) (antibody, V domains shown)
VH: B1 VH with R72V, T74K
VL: B1 VL with S57N, G72E
B5: P1AG5004 (E04_VH1a/VL1b) (antibody, V domains shown)
VH: B1 VH
VL: B1 VL with S57N, Q59E, G72E
B6: P1AG5044 (E04_VH1b/VL1b) (antibody, V domains shown)
VH: B1 VH with R72V, T74K
VL: B1 VL with S57N, Q59E, G72E
B7: P1AG5053 (E04_VH1a/VL1h) (antibody, V domains shown)
VH: B1 VH
VL: B1 VL with S57N, Q59E, G72E, Y91F
B8: P1AG5036 (E04_VH1a/VL1f) (antibody, V domains shown)
VH: B1 VH
VL: B1 VL with G72E
B9: P1AG5062 (E04 parental) (antibody, V domains shown)
VH: QVQLQQPGAELVKPGASVKLSCKASGYTFTNYWMHWVKQRPGQGLEWIGIIHPNSGSTNYNEKFKSKATLTVDKSSSTAYMQLSSLTSEDSAVYYCARGIYDYPFAYWGQGTLVTVSS
VL: DIVLTQSPASLAVSLGQRATISCRASESVSIHGTHLMHWYQQKPGQPPKLLIYAASNLESGVPARFSGSGSETDFTLNIHPVEEEDAATYFCQQSIEDPYTFGGGTKLEIK
B10: P1AG5031 (54_VH2a/VL2a) (antibody, V domains shown)
VH: EVQLLESGGGLVQPGGSLRLSCAASGFTFSNAWMDWVRQAPGKGLEWVSQITAKSNNYATYYADSVKGRFTISRDNSKNTLYLQMNSLRAEDTAVYYCTDDGYHWGQGTLVTVSS
VL: DIQMTQSPSSLSASVGDRVTITCRASEDIRNGLAWYQQKPGKAPKLLIYNANSLHTGVPSRFSGSGSGTDFTLTISSLQPEDFATYYCEDTSKYPYTFGQGTKLEIK
B11: P1AG5061 (54 parental) (antibody, V domains shown)
VH: EVQLVESGGGLVKPGESLRLSCAASGFTFSNAWMDWVRQAPGKRLEWIAQITAKSNNYATYYAAPVKGRFTISRDDSKNTLYLQMNSLKKEDTAVYYCTDDGYHWGQGTLVTVSS
VL: B10 VL with D1A, T22A, F83E, T85I
B12: P1AG5057 (54_VH1a_Y292D/VL1a) (antibody, V domains shown)
VH: B11 VH with E16G, R44G, I48V, A49G, Y61D, K90T
VL: B10 VL with D1A
B13: P1AG5013 (54_VH2a/VL1a_L1_pGL) (antibody, V domains shown)
VH: B10 VH
VL: B10 VL with D1A, G32D, A34G
B14: P1AG5072 (54_VH1b/VL1a) (antibody, V domains shown)
VH: B11 VH with E16G, R44G, K90T
VL: B10 VL with D1A
B15: P1AG5027 (54_VH1b/VL1a_L1_pGL) (antibody, V domains shown)
VH: B11 VH with E16G, R44G, K90T
VL: B10 VL with D1A, G32D, A34G
B16: P1AG5071 (54_VH2a/VL1a_T699S) (antibody, V domains shown)
VH: B10 VH
VL: B10 VL with D1A, T56S
B17: P1AG5080 (54_VH1a_Y292D/VL2a) (antibody, V domains shown)
VH: B11 VH with E16G, R44G, I48V, A49G, Y61D, K90T
VL: B10 VL
B18: P1AG5056 (54_VH1b/VL1a_N651A) (antibody, V domains shown)
VH: B11 VH with E16G, R44G, K90T
VL: B10 VL with D1A, N50A

Molecular target: T1, human BCMA-Fc (human)
T1 chain: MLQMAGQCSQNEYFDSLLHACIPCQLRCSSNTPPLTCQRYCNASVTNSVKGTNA
Assay: SPR, 25C

Row | Binder | Kd
1 | B1 | 3 nM
2 | B2 | 1.9 nM
3 | B3 | 1.6 nM
4 | B4 | 2.4 nM
5 | B5 | 2.5 nM
6 | B6 | 1.8 nM
7 | B7 | 2.4 nM
8 | B8 | 2.9 nM
9 | B9 | 3.1 nM
10 | B10 | 2.4 nM
11 | B11 | 1.4 nM
12 | B12 | 1.7 nM
13 | B13 | 2.4 nM
14 | B14 | 1.3 nM
15 | B15 | 1.7 nM
16 | B16 | 3.4 nM
17 | B17 | 1.3 nM
18 | B18 | 4.2 nM

These binders were tested against cynomolgus BCMA-Fc (cynomolgus) (assay: SPR, 25C).
Chain of cynomolgus BCMA-Fc (cynomolgus) (chain, as listed by the source): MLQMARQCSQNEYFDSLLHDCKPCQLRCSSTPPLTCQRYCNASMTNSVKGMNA

Row | Binder | Kd
19 | B1 | 12 nM
20 | B2 | 23 nM
21 | B3 | 28 nM
22 | B4 | 22 nM
23 | B5 | 16 nM
24 | B6 | 20 nM
25 | B7 | 13 nM
26 | B8 | 9.5 nM
27 | B9 | 33 nM
28 | B10 | 4.7 nM
29 | B11 | 1.9 nM
30 | B12 | 4 nM
31 | B13 | 1.9 nM
32 | B14 | 3.2 nM
33 | B15 | 1.2 nM
34 | B16 | 6.5 nM
35 | B17 | 4.3 nM
36 | B18 | 13 nM
